Test results: the nanobody polyreactivity screen of Harvey et al. (2022)

Experiment: yeast display, Sf9 membrane polyspecificity reagent, FACS + sequencing; frameworks hold sequencing errors
Summary of the method: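 Synthetic nanobody libraries on Saccharomyces cerevisiae BJ5465 were galactose-induced for 36–48 hours, stained 1 hour at 4 °C with 10% biotinylated, detergent-solubilized Sf9 membrane reagent and enriched on streptavidin microbeads. FACS then separated cells into low and high (top ~1%) gates by anti-HA (expression) and streptavidin (reagent binding) fluorescence. Genes were colony-PCR amplified, MiSeq 2 × 250 sequenced and CDR-length filtered. A clone's polyreactivity label is that of its gate of origin.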

QVQLVESGGGLVQAGGSLRLSCAASGSTFGEYAMGWYRQAPGKERELVAAITSSGGSTYYADSVKGRFTISRDNAKNTVYLQMNSLKPEDTAVYYCAADWDYPYDEAVSKDIDYDYWGQGTQVTVSS
polyreactivity (PSR sort gate): low polyreactivity

QVQLVESGGGLVQAGGSLRLSCAASGRTFWKYAMGWYRQAPGKERELVAAISSSGGNTYYADSVKGRFTISRDNAKNSVYLQMNSLKPEDTAVYYCAARLPRGAYYYWGQGTQVTVSS
polyreactivity (PSR sort gate): high polyreactivity

QVQLVESGGGLVQAGGSLRLSCAASGLIFLYNPMGWYRQAPGKEREFVAAITSVDSTKYADSVKGRFTISRENAKNTVYLQLNSLKPEDTAVYYCAAVPRYQYGYWGQGTQVTVSS
polyreactivity (PSR sort gate): low polyreactivity

QVQLVESGGGLVQAGGSLRLSCAASGRTFSTYTMGWYRQAPGKERELVAAITSSGGGTYYADSVKGRFTISRDNAKNTVYLQMNSLKPEDTAVSYCGTVRTYRPPVRRGYWGQGTQVTVSS
polyreactivity (PSR sort gate): high polyreactivity

QVLLQESGGLVQAGCSLRMSCAESGSISTALSMGWYRQAPGKERELVATISDGASTNYADSVKGRFTISRVNAKNTLYLQMNSLKPEDTEVYYCAAQSQYRPDHRYWGQGTKVTVSS
polyreactivity (PSR sort gate): high polyreactivity

QVQLVESGGGLVQAGGSLRLTCAASRRIFSYYAMGDYIQATGKERELVADINWSGGSTYYADSVKGRFTISRDNAKNTFYLQMNSLKPEDTAVYYCAVDWTSAYGTYYYTPYDSWGQGTQVTVSS
polyreactivity (PSR sort gate): low polyreactivity

QVHLVESGGGLVQAGGSLRLSCAASVRIFQIYAMGWYRQAPGKERELVATISSGTRTYYADSVKGRFTISRDNAKNTVYLQMISLKPEDTAVYYCAKTYATRHAYWAGTRYEDDYWGQGTQVTVSS
polyreactivity (PSR sort gate): high polyreactivity

QVQLVESGGGLVQAGGSLRLSCAASGITFDQNAMGWSRQEPGKESEFVAAISVSGARTYYADSVKGRFTISRDNAKNTVYLQMNSLKPEDTAVYYCAAYGGTRYYYSYYYWGQGTQVTVSS
polyreactivity (PSR sort gate): high polyreactivity

QVQLVESGGGLVQAGGSLRLSCAASGFTFQYYAMGWYRQAPGKERELVAVISRSGGRTYYADSVKVRFTISRDNAKNTVYLQMNSLKPEDTAVYYCAALSQPGQSDDKQYDYWGQGTQVTVSS
polyreactivity (PSR sort gate): high polyreactivity

QVQLVESGGGLVQAGGSRRLSCAASGSTFRINAMGWYRQAPGKERELVADINSGGNTTYADSVKGRFTISRDNAKNTVYLQMNSLKPEDTAVYYCAADPVFDLWEFLLDYGYDYWGQGTQVTVSS
polyreactivity (PSR sort gate): low polyreactivity

QVQLVESGGGLVQAGGSLRLSCASSGRTFYRNAMGWYRQAPGKERELVAAIRGSGSSTYYADSVKGRFTISRDNAKNSVYLQMKSLKQEDTAVYYCAADYINYNGYARYYFWGQGTQVTVSS
polyreactivity (PSR sort gate): high polyreactivity

QVQLVESGGGLVQAGGSLRLSCAASGRIFSRYTMVWYRQAPRKERELVAAISSSGGSTYYADSVKGRFTISRDNAKNTVYLQMNSLKQEDTAVYYCAARQYIGSPPHRRRFDYWGQGTQVTVSS
polyreactivity (PSR sort gate): high polyreactivity

QVQLVDSGGGLVQAGGSLRLSCAASGSTFRRNALGWYRQAPGKERELVAAITRSGGRTYYADSVKGRFTISRDNAKNTVYLQMNSLKPEDTAVYYCAARHAPTRYGYWGQGTQVTVSS
polyreactivity (PSR sort gate): high polyreactivity

QVHLVESGGVLVQAGGSLRLSCAASGIALLYYTMGWYRQAPGKERELVAAINSGGRTYYADSVKGRYTISRDNAKNTGYLQMNSLKPDDTAVYFCAAHGGADHMDYWGQGTQVTVSS
polyreactivity (PSR sort gate): high polyreactivity

QVQLVESGGGLVQAGGSLRLSSAASGIIFDYNAMGWYRQAPGKERELVAAISYSGDSTYYADSVKGRFTISRDNAKNTVYLQMNSLKPEDTAVYYCAAVIYFGWWYVYTEDDYWGQGTQVTVSS
polyreactivity (PSR sort gate): high polyreactivity

QVQLVESGGGLVQAGGSLRLSCAASGRIFRVNTMGWYRQAPGKERELVAAISTSGGTTYYADSVKGRFTISRDNAKNTVYIQLNSLKPEDTAVYYCNASYLTRRDGYIEDAIYDYWGQGTQVTVSS
polyreactivity (PSR sort gate): low polyreactivity

QVQLVDSGGGLVQAGGRLRLSCAASGYILTHYAMGWYRQAPGKERELVAAITRVGNTNYADSVKGRFTISRDNAKNTVYLQMNSLKPEDTAVYSCAADGVASLFGDPPTEFDYWGQGTQVTVSS
polyreactivity (PSR sort gate): low polyreactivity

QVQLVESGGGLVQAGGSLRLSCAASGSTFSHYAMGWYRQAPGKERELVATITGTGVRTYYADSVKGRFTISRDNAKNTVYLQMNSLKPEDTAVYYCAVPPSKRGAQAQPWMDYWGQGTQVTVSS
polyreactivity (PSR sort gate): low polyreactivity

QVQLVESGGGLVQAGGSLRLICAASGITTRTYAMGWYRQAPGKDRELVAAISDSGDRTYYADSVKGRFTISRDNAKNTVYLQMNRLKPEDTAVYYCAVDAPGPRCEFWGQGTKVTVSS
polyreactivity (PSR sort gate): low polyreactivity

QDQLVESGGGLVQAGGSLRLTCAASGSIFRYYVMGWYRQAPGKERELVAGISSSGGRTYYADSVKGRFTISRDNANNTVYLQMNSLKPEDTAVYYCNAVTSRRPYDYWGHGTQVTVSS
polyreactivity (PSR sort gate): high polyreactivity

QDQLVESGGGLVQAGGSLRLSCAASGLIFDSYAMGWYRQAPGKERELVAAITYTGGSTYYADSVKGRFTISRDNAKNTVYLQMNSLKPEDTAVYYCAADSPGPWRYDYWGQGTQVTVSS
polyreactivity (PSR sort gate): high polyreactivity

QVQLVESGGGLVQAGGSLRLSCAASGRTFYPYGMGWYRQAPGKERELVATITTGGSTNYADSVKGRFTISRDNAKTTVYLQMNSLKPEDTAVYYCAAKTRIRYYSWGQGTQVTVSS
polyreactivity (PSR sort gate): low polyreactivity

QVQLVESGGGLFQAGGSLRLSCAASGFTFWYYAMGWYRQAPGKERELVAAISASGGSTYYADSVKVRFTISRDNAKNTVYLQMNCLKPEDTAVYYCAARYPSKFYNTYDRDYWGQGTQVTVSS
polyreactivity (PSR sort gate): high polyreactivity

QVQLVESGGGLVQAGGSLRLSCAASGRIFFYNVMGWYRQAPGKERELVAAITTIGGSTYYADSVKGRFTISRDNAKNTVYLQMNTLKPEDTAVYYCAAGWVTNSDGMDYWGQGTQVTVSS
polyreactivity (PSR sort gate): low polyreactivity

QVQLVESGGGLVQAGGSLRLSCAASGLIFGPYTMGWYRQAPGKERELVAAISRSGGITYYADSEKGRFTISRDNAKNTVYLQMNSLKPEDTAGYYCAARYSTQWSRYDYWGQGTQVTVSS
polyreactivity (PSR sort gate): high polyreactivity

QVQLVESGGGLVQAGGSLRLSCAASGSTFFPYAMGWYRQAPGKERELVAAIRWSGGRTYYADSVKGRFTISRDNAKNTVYLQMNRLKPEDTAVYYCNAGRYKYTDDYWGQGTQVTVSS
polyreactivity (PSR sort gate): high polyreactivity

QVQLLESVGGLVQAGGRLRLTCDATGSIFRYYAMGWYRQEPGKERELVATISSGGRTYYADSVKGRFTISRDNAKNTVYLQMNSLKPEDTAVYYCAKVGWSRRYYYWGQGTQVTVSS
polyreactivity (PSR sort gate): high polyreactivity

HVHLVESGGGLVQAGGSLRLSCAASGRTFSTYAMGRYRQAPGKERELVATIRVSGSSTYYADSVKGRFTISRDNAKNTVYLQMNSLKQEDTEVYYCANRGLSRYYDYYYWGQGTQVTVSS
polyreactivity (PSR sort gate): high polyreactivity

QVQLVESGGGLVQAGGSLRLSCAASGSILKFNAMGWYRQAPGKERELVAAITRGTNTYYADSVKGRFTISRDNANNTFFLQMNSLKPEDTAVYYCAARLPYNAIGYYYWGQGTQVTVSS
polyreactivity (PSR sort gate): low polyreactivity

QVQLVESGGGLVQAGGSLRLSCAASGSTFARYTMGWYRQAPGKERELVAAITSNGVSTYYADSVKGRFTISRDNAKNTVYLQMNSLKPEDTAVYYCAASSRSRYGRNDYWGQGTQVTVSS
polyreactivity (PSR sort gate): low polyreactivity

QVQLVESGGGLVQAGGSLRLSCAASGSIFRSYAIGWYRQAPGKERELVASISRRGGSTYYADSVKGRFTISRDNAKNTVYLQMKSLKPEDTAVYYCAAVRYNSRVSTTPSEMYYWGQGTQVTVSS
polyreactivity (PSR sort gate): low polyreactivity

QVHLVESGGCLVQAGGSLRLSCAASGSTFSRYAMVWYRQAPGKEREYVAGISWSGGNTYYADSVKGRFTISRDNAKNTVYLQMNSLKTEATAVYYCASDFLDYWGVYGWAEYEYWGQGTQGTVSS
polyreactivity (PSR sort gate): low polyreactivity

QVQLVESGGGLVQAGGSLRLSCAASGFTFVRNALGWYRPAPGKERELVAAITDAGRTTYADSVKGRFTISRDNAKNTVYLQMNSLKPEDTAVYYCAKGKWWGWPWYSMDYWGQGTQVTVSS
polyreactivity (PSR sort gate): low polyreactivity

QVQLVESGGGLVQAGGSLRLSCAASGRIFRHNAMGWYRQAPGKESELVAAISGGGTTYYADSVKGRFTISRDNAKNTVYLQMNSLKPEDTAVYYCAARRRGSVGVGYAYPYNYWGQGTQVTVSS
polyreactivity (PSR sort gate): high polyreactivity

QVQLVESGGGLVQAGGSLRLSCAASGRIFGSYAMGWYRQAPGKERELVASISGSGTSTYYADSVKGRFTISRDNAKNTVYLQMNSLKPEDTAVYYCARYVRYYPSKFYYWGQGTQVTVSS
polyreactivity (PSR sort gate): high polyreactivity

QVQLVESGGGLVQAGGSLRLSCAASGSTFRRYAMGWYRQAPGKERELVAAIRQRGTSTYYADSVKGRFTISRDNAKNTVYLQMNSLKPEDTAVYYCAAGPSLWLFNSWGQGTQVTVSS
polyreactivity (PSR sort gate): high polyreactivity

QVQLVESGGGLVQAGGSLLLSCAASGSTFAWYAMGWNRQAPGKERELVAAISRTGRTYYADSVKGRFTISRDNAKNTVYLEMNSLKPEDTAVYYCAARIERFYRDQRYDYWGQGTQVTVSS
polyreactivity (PSR sort gate): high polyreactivity

QVQLVESGGGLVQAGGSLRLSCAASGIIFGIYARGWYRQAPGKERELVAAIRYRGGNTNYADSVKGRFTISRDNAKNTVYLQMNSLKPEDTAVYYCAAKRFADPYYYWGQGTQVTVSS
polyreactivity (PSR sort gate): high polyreactivity

QVQLVESGGGLVQAGGSLRLSCAASGRTFVPYDMGLYRQAPGKERELVAAISSGDSTNYTDSVKGRFTISRDNAKNTVYLQMNSLKPEDTAVYYCAADLTYTMDHWGQGTQVTVSS
polyreactivity (PSR sort gate): low polyreactivity

QVQLVESGGGLVQAGGSLRLSSAASGRIFYLYAMGWYRQAPVKERELVAGITSGGRTNYADSVKGRFTISRDNAKNTFFLQMNSLKPEDTAVYYCAAYYWGLYSGYYWRQGTQVTVSS
polyreactivity (PSR sort gate): high polyreactivity

QVQLVESGGGLVQAGGSLRLSCAASGSILRKYAMGWYRQAPGKERELVAAISWSGGSTYYADSVKGRFTISRDNAKNTVYVQMNSLKPEDTAVYYCNRDGLSRPYYYWGQGTQVTVSS
polyreactivity (PSR sort gate): high polyreactivity

QVQLVESGGGLVQAAGSLRISCAASGRTFATNAMGWYRQAPGKERELVAVISASGGSTYYADSVKGRFTISRDNAKNTVYLQMNSLKPEDTAVYYCAADVYRRYDYWGQGTQVTVSS
polyreactivity (PSR sort gate): high polyreactivity

QVQLVESGGGLVLAGGSLPLSCAASGSIIWRNAMGWSRHAPVKERELVAAITWNGGSTYYADSVKGCFTSSRDNAKNTVYLQMNSLIPEDTAVYYSAARCEYPYDYWGQGSQVTVSS
polyreactivity (PSR sort gate): low polyreactivity
